Source: FireProtDB (doi:10.1006/jmbi.1997.1365)
Where “and” joins values, the source holds several entries; their conditions need not be identical. Identical values can stand only once.

B1: Lysozyme C, P61626 (parent)
chain: MKALIVLGLVLLSVTVQGKVFERCELARTLKRLGMDGYRGISLANWMCLAKWESGYNTRATNYNAGDRSTDYGIFQINSRYWCNDGKTPGAVNACHLSCSALLQDNIADAVACAKRVVRDPQGIRAWVAWRNRCQNRDVRQYVQGCGV

Variants of: B1
Settings: Homo sapiens; pH 2.5; Thermal; DSC; glycine 0.05 M; reversible: yes; structure 1LZ1; whole UniProt chain shown

Variant	Tm [°C]	heat capacity change of unfolding [kcal/mol/K]	unfolding enthalpy (calorimetric) [kcal/mol]	unfolding enthalpy (van 't Hoff) [kcal/mol]
I74A	48.2	1.22	82.8	84
I107A	52.6	1.72	89.5	95.5

Same assay, conditions: Homo sapiens; pH 2.67; Thermal; DSC; glycine 0.05 M; reversible: yes; structure 1LZ1; whole UniProt chain shown

Variant	Tm [°C]	heat capacity change of unfolding [kcal/mol/K]	unfolding enthalpy (calorimetric) [kcal/mol]	unfolding enthalpy (van 't Hoff) [kcal/mol]
I74A	52.3	1.53	89	91.4
I41A	56.2	1.51	98.1	103

Same assay, conditions: Homo sapiens; pH 2.7; 64.9 °C; Thermal; DSC; glycine 0.05 M; reversible: yes; structure 1LZ1; whole UniProt chain shown

Variant	ddG of mutation (higher = less stable) [kcal/mol]	heat capacity change of unfolding [kcal/mol/K]	unfolding enthalpy (calorimetric) [kcal/mol]	unfolding enthalpy (van 't Hoff) [kcal/mol]
I74A	3.71	1.34	105	111
I41A	2.54	1.2	109	116
I107A	2.7	1.65	110	113
I124A	0.93	1.34	106	112
I77G	3.83	1.24	106	110
I77A	1.72	1.46	115	121

Same assay, conditions: Homo sapiens; pH 2.81; Thermal; DSC; glycine 0.05 M; reversible: yes; structure 1LZ1; whole UniProt chain shown

Variant	Tm [°C]	heat capacity change of unfolding [kcal/mol/K]	unfolding enthalpy (calorimetric) [kcal/mol]	unfolding enthalpy (van 't Hoff) [kcal/mol]
I74A	54.2	1.46	90.7	92.1

Same assay, conditions: Homo sapiens; pH 2.96; Thermal; DSC; glycine 0.05 M; reversible: yes; structure 1LZ1; whole UniProt chain shown

Variant	Tm [°C]	heat capacity change of unfolding [kcal/mol/K]	unfolding enthalpy (calorimetric) [kcal/mol]	unfolding enthalpy (van 't Hoff) [kcal/mol]
I74A	58.5	1.6	96.9	102
I41A	62	1.08	105	111
I124A	67.4	1.17	109	114

Same assay, conditions: Homo sapiens; pH 3.08; Thermal; DSC; glycine 0.05 M; reversible: yes; structure 1LZ1; whole UniProt chain shown

Variant	Tm [°C]	heat capacity change of unfolding [kcal/mol/K]	unfolding enthalpy (calorimetric) [kcal/mol]	unfolding enthalpy (van 't Hoff) [kcal/mol]
I74A	60.2	1.44	98.8	102

Same assay, conditions: Homo sapiens; pH 2.73; Thermal; DSC; glycine 0.05 M; reversible: yes; structure 1LZ1; whole UniProt chain shown

Variant	Tm [°C]
I74G	62.7

Same assay, conditions: Homo sapiens; pH 2.7; Thermal; DSC; glycine 0.05 M; reversible: yes; structure 1LZ1; whole UniProt chain shown

Variant	Tm	change of melting temperature, mutant - wild type (higher = more stable) [°C]	heat capacity change of unfolding	unfolding enthalpy (calorimetric) [kcal/mol]	unfolding enthalpy (van 't Hoff) [kcal/mol]
I41A	56.8 °C	-8.1	1.2 kcal/mol/K	–	–
I107A	56.2 °C	-8.7	1.65 kcal/mol/K	–	–
I124A	61.9 °C	-3	1.34 kcal/mol/K	–	–
I77G	52 °C and 52.2 °C	-12.7	0.62 kcal/mol/K and 1.24 kcal/mol/K	90.9	92.8
I77A	59.7 °C	-5.2	1.46 kcal/mol/K	–	–

Same assay, conditions: Homo sapiens; pH 2.66; Thermal; DSC; glycine 0.05 M; reversible: yes; structure 1LZ1; whole UniProt chain shown

Variant	Tm [°C]	heat capacity change of unfolding [kcal/mol/K]	unfolding enthalpy (calorimetric) [kcal/mol]	unfolding enthalpy (van 't Hoff) [kcal/mol]
I107A	55.4	1.39	93.1	98.1
I77A	59.1	1.2	106	114

Same assay, conditions: Homo sapiens; pH 2.8; Thermal; DSC; glycine 0.05 M; reversible: yes; structure 1LZ1; whole UniProt chain shown

Variant	Tm [°C]	heat capacity change of unfolding [kcal/mol/K]	unfolding enthalpy (calorimetric) [kcal/mol]	unfolding enthalpy (van 't Hoff) [kcal/mol]
I107A	57.7	1.08	97.8	103
I124A	64.1	0.98	104	111
I77A	61.5	1.2	110	115

Same assay, conditions: Homo sapiens; pH 2.95; Thermal; DSC; glycine 0.05 M; reversible: yes; structure 1LZ1; whole UniProt chain shown

Variant	Tm [°C]	heat capacity change of unfolding [kcal/mol/K]	unfolding enthalpy (calorimetric) [kcal/mol]	unfolding enthalpy (van 't Hoff) [kcal/mol]
I107A	61.1	1.67	103	108

Same assay, conditions: Homo sapiens; pH 3.09; Thermal; DSC; glycine 0.05 M; reversible: yes; structure 1LZ1; whole UniProt chain shown

Variant	Tm [°C]	heat capacity change of unfolding [kcal/mol/K]	unfolding enthalpy (calorimetric) [kcal/mol]	unfolding enthalpy (van 't Hoff) [kcal/mol]
I107A	62.9	1.51	106	110

Same assay, conditions: Homo sapiens; pH 2.51; Thermal; DSC; glycine 0.05 M; reversible: yes; structure 1LZ1; whole UniProt chain shown

Variant	Tm [°C]	heat capacity change of unfolding [kcal/mol/K]	unfolding enthalpy (calorimetric) [kcal/mol]	unfolding enthalpy (van 't Hoff) [kcal/mol]
I124A	57.7	1.15	96.4	102

Same assay, conditions: Homo sapiens; pH 3.1; Thermal; DSC; glycine 0.05 M; reversible: yes; structure 1LZ1; whole UniProt chain shown

Variant	Tm [°C]	heat capacity change of unfolding [kcal/mol/K]	unfolding enthalpy (calorimetric) [kcal/mol]	unfolding enthalpy (van 't Hoff) [kcal/mol]
I124A	69.7	1.58	112	119

Same assay, conditions: Homo sapiens; pH 2.49; Thermal; DSC; glycine 0.05 M; reversible: yes; structure 1LZ1; whole UniProt chain shown

Variant	Tm [°C]	heat capacity change of unfolding [kcal/mol/K]	unfolding enthalpy (calorimetric) [kcal/mol]	unfolding enthalpy (van 't Hoff) [kcal/mol]
I77G	48.1	0.79	84.4	89.7
I77A	55.9	0.84	101	108

Same assay, conditions: Homo sapiens; pH 2.82; Thermal; DSC; glycine 0.05 M; reversible: yes; structure 1LZ1; whole UniProt chain shown

Variant	Tm [°C]	heat capacity change of unfolding [kcal/mol/K]	unfolding enthalpy (calorimetric) [kcal/mol]	unfolding enthalpy (van 't Hoff) [kcal/mol]
I77G	54.6	0.65	94.7	97.6

Same assay, conditions: Homo sapiens; pH 3.02; Thermal; DSC; glycine 0.05 M; reversible: yes; structure 1LZ1; whole UniProt chain shown

Variant	Tm [°C]	heat capacity change of unfolding [kcal/mol/K]	unfolding enthalpy (calorimetric) [kcal/mol]	unfolding enthalpy (van 't Hoff) [kcal/mol]
I77G	59.2	0.86	98.6	100

Same assay, conditions: Homo sapiens; pH 3.16; Thermal; DSC; glycine 0.05 M; reversible: yes; structure 1LZ1; whole UniProt chain shown

Variant	Tm [°C]	heat capacity change of unfolding [kcal/mol/K]	unfolding enthalpy (calorimetric) [kcal/mol]	unfolding enthalpy (van 't Hoff) [kcal/mol]
I77G	60.4	0.81	100	102

Same assay, conditions: Homo sapiens; pH 2.98; Thermal; DSC; glycine 0.05 M; reversible: yes; structure 1LZ1; whole UniProt chain shown

Variant	Tm [°C]	heat capacity change of unfolding [kcal/mol/K]	unfolding enthalpy (calorimetric) [kcal/mol]	unfolding enthalpy (van 't Hoff) [kcal/mol]
I77A	64.5	1.63	115	120
